Data as given in US20220354880A1, “COMBINATION TREATMENT FOR CANCER” (AstraZeneca AB, priority 2019, published 2022).

B1: MEDI4736: anti-PD-L1 antibody selective for a PD-L1 polypeptide; SEQ ID NOs: 3-10 (antibody, V domains shown)
VH: EVQLVESGGGLVQPGGSLRLSCAASGFTFSRYWMSWVRQAPGKGLEWVANIKQDGSEKYYVDSVKGRFTISRDNAKNSLYLQMNSLRAEDTAVYYCAREGGWFGELAFDYWGQGTLVTVSS
VL: EIVLTQSPGTLSLSPGERATLSCRASQRVSSSYLAWYQQKPGQAPRLLIYDASSRATGIPDRFSGSGSGTDFTLTISRLEPEDFAVYYCQQYGSLPWTFGQGTKVEIK
modifications: MEDI4736 VH; Sequence 72 from PCT/US2010/058007; MEDI4736 VL; Sequence 77 from PCT/US2010/058007

What was measured:
[1] = tested on: MC-38 OVA; assay: Low dose cisplatin anti-tumor activity in MC-38 OVA mice; format: in vivo; conditions: cisplatin 5 mg/kg (approximately 60 mg/m^2 human dose)
Procedure: FIGS. 1A-1C relate to Example 1.
A low dose treatment of cisplatin, 5 mg/kg (equivalent to approximately 60 mg/m^2 human dose) was tested for anti-tumor activity in MC-38 OVA mice.

[2] = tested on: xenograft model; conditions: via a T-cell dependent mechanism; cited from earlier work
[3] = tested on: human T-cell; conditions: in vitro; cited from earlier work

| Molecule | anti-tumor activity (tumor growth inhibition) [1] | tumor growth in a xenograft model [2] | PD-L1-mediated suppression of human T-cell activation [3] |
| --- | --- | --- | --- |
| N.N.[Cl][Pt][Cl] [cisplatin] | produces most tumor growth inhibition | – | – |
| B1 | – | inhibit tumor growth in a xenograft model | can relieve PD-L1-mediated suppression of human T-cell activation in vitro |
